In patent US20190284299A1 (BEIJING HANMI PHARMACEUTICAL, published 2019):

Assays:
[1] = biological target: T1, recombinant human Trop-2 (Sino Biological, Cat. No: 10428-H08H) (human, UniProt P09758 27-274); experiment: ELISA, recombinant human Trop-2 coated at 1 ug/mL, anti-human IgG-HRP
T1 construct: Coated on the ELISA plate
T1 sequence (looked up): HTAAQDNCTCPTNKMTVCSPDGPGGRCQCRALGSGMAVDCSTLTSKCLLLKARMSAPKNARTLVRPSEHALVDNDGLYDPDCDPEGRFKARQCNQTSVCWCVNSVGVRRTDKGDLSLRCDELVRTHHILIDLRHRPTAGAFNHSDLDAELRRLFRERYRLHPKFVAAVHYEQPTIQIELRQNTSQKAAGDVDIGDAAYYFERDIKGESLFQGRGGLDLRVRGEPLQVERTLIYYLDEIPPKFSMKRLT

Trop-2 on BxPC3 cells = biological target: T2, Trop-2 on BxPC3 cells (UniProt P09758 27-323, limits assumed); experiment: flow cytometry of PKH26-stained BxPC3 and CFSE-stained Jurkat cells, as in Example 9
T2 construct: whole, on cells; also called BxPC3 cells with high expression Trop-2
T2 sequence (looked up): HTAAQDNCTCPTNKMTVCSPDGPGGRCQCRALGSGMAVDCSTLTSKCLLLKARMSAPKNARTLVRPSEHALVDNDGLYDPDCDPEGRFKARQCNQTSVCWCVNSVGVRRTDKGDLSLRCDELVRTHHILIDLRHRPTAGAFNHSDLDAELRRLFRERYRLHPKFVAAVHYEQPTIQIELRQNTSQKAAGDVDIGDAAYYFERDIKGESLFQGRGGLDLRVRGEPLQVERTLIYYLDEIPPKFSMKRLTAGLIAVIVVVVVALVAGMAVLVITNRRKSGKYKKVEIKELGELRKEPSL

B1: heterodimeric anti-Trop-2/anti-CD3-scFv bispecific antibody (bispecific antibody)
heavy: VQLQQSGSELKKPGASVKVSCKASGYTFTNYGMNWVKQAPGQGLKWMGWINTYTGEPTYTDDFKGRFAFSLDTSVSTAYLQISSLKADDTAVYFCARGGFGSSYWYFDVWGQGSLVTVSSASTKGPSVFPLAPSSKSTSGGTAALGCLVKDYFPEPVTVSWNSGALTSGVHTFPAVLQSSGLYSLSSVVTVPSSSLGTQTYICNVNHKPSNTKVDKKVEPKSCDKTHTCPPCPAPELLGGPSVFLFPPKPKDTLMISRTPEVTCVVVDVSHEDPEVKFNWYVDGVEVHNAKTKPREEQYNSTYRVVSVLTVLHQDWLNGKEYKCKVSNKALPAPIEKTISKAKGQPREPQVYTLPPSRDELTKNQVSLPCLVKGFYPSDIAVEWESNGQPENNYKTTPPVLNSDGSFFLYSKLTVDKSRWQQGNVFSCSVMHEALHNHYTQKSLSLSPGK
light: DIQLTQSPSSLSASVGDRVSITCKASQDVSIAVAWYQQKPGKAPKLLIYSASYRYTGVPDRFSGSGSGTDFTLTISSLQPEDFAVYYCQQHYITPLTFGAGTKVEIKRTVAAPSVFIFPPSDEQLKSGTASVVCLLNNFYPREAKVQWKVDNALQSGNSQESVTEQDSKDSTYSLSSTLTLSKADYEKHKVYACEVTHQGLSSPVTKSFNRGEC
scFv: not shown
notes: also called anti-Trop2/anti CD3-scFv heterodimer; Anti-Trop-2/CD3 heterodimeric BsAb
binding result [1]: binds
binding result (Trop-2 on BxPC3 cells): binds
